This note sets out measurements from publication PMC3824023.

For the assay, the target named is microtubules polymerised from bovine brain tubulin (bovine) (UniProt Q6B856).
UniProt Q6B856, sequence (Q6B856 whole entry, looked up): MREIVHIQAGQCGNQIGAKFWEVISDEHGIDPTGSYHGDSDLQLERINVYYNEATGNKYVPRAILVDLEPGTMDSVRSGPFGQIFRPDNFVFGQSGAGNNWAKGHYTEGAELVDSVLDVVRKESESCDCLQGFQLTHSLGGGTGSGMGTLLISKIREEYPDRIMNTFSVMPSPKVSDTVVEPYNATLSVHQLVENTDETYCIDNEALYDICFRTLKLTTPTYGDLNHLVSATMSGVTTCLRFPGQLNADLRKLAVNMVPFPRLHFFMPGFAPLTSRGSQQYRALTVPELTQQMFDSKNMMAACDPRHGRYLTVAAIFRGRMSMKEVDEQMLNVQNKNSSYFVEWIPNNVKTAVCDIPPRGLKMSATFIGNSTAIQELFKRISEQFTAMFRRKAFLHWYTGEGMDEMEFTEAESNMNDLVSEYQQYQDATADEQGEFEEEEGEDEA

B1: KIF17M-490 (C-terminally truncated KIF17, amino acids 1-490: motor, neck and first coiled-coil domains) (domain or fragment)
chain: MASEAVKVVVRCRPMNQRERELRCQPVVTVDCARAQCCIQNPGAADEPPKQFTFDGAYHVDHVTEQIYNEIAYPLVEGVTEGYNGTIFAYGQTGSGKSFTMQGLPDPPSQRGIIPRAFEHVFESVQCAENTKFLVRASYLEIYNEDVRDLLGADTKQKLELKEHPEKGVYVKGLSMHTVHSVAQCEHIMETGWKNRSVGYTLMNKDSSRSHSIFTISIEMSAVDERGKDHLRAGKLNLVDLAGSERQSKTGATGERLKEATKINLSLSALGNVISALVDGRCKHVPYRDSKLTRLLQDSLGGNTKTLMVACLSPADNNYDETLSTLRYANRAKNIRNKPRINEDPKDALLREYQEEIKKLKAILTQQMSPSSLSALLSRQVPPDPVQVEEKLLPQPVIQHDVEAEKQLIREEYEERLARLKADYKAEQESRARLEEDITAMRNSYDVRLSTLEENLRKETEAVLQVGVLYKAEVMSRAEFASSAEYPPAF
On to B1, for which the K (0.5, MT) of MT-stimulated ATPase, KIF17M-490 alone was found to be 1.3 µM; the K (0.5, MT) of MT-stimulated ATPase, KIF17M-490 with EB1 (2x molar ratio) is 0.7 µM; the K (0.5, MT) of MT-stimulated ATPase, KIF17M-490 with equimolar KIF17-tail stood at 0.4 µM.
